Test results as given in the supplement of paper PMC7877785.
± gives the uncertainty stated by the source.

Assay: self-splicing fitness, log relative to wild type (ln ratio); higher = more splicing; Tetrahymena group I intron in knt gene, E. coli kanamycin selection, DiMSum; sequences stand for … in CUCUCU…GGAGGGAAAAGUUAUCAGGCAUGCACCUGGUAGCUAGUCUUUAAACCAAUAGAUUGCAUCGGUUUAAAAGGCAAGACCGUCAAAUUGCGGGAAAGGGGUCAACAGCCGUUCAGUACCAAGUCUCAGGGGAAACUUUGAGAUGGCCUUGCAAAGGGUAUGGUAAUAAGCUGACGGACAUGGUCCUAACCACGCAGCCAAGUCCUAAGUCAACAGAUCUUCUGUUGAUAUGGAUGCAGUUCACAGACUAAAUGUCGGUCGGGGAAGAUGUAUUCUUCUCAUAAGAUAUAGUCGGACCUCUCCUUAAUGGGAGCUAGCGGAUGAAGUGAUGCAACACUGGAGCCGCUGGGAACUAAUUUGUAUGCGAAAGUAUAUUGAUUAGUUUUGGAGUACUCGUGGUCG
In short: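 Six replicate transformations of E. coli BL21(DE3) with a pET-22b(+) library were grown overnight at 37°C or 30°C. The library randomised all eight P1ex-region intron nucleotides, the intron lying in the knt kanamycin-resistance gene, and plates were LB agar with or without 25 μg/mL kanamycin plus 100 μg/mL carbenicillin, 50 μM IPTG and 0.2% rhamnose. Pooled colonies were amplicon-sequenced on an Illumina HiSeq 2500, and fitness is the DiMSum error-weighted combination of wild-type-normalised replicate fold changes, kanamycin versus none.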

Sequence	self-splicing fitness (ln) (30 °C)	self-splicing fitness (ln) (37 °C)
AAGUAGCAAUAUUACGGACA	-1.7 ± 0.12	-0.343 ± 0.12
AAGUAGCAAUAUUACGGAGA	-3.93 ± 0.37	-2.34 ± 0.39
AAGUAGCAAUAUUACGGCCU	-0.0359 ± 0.073	-0.35 ± 0.091
AAGUAGCAAUAUUACGGGCC		-1.88 ± 0.37
AAGUAGCAAUAUUACGGUAU	-2.25 ± 0.097	-1.88 ± 0.092
AAGUAGCAAUAUUACGGUUU	-0.353 ± 0.064	-0.458 ± 0.098
AAGUAGCAAUAUUACGUAUA	-1.96 ± 0.13	-2.15 ± 0.14
AAGUAGCAAUAUUACGUUGA	-3.64 ± 0.32	-2.29 ± 0.22
AAGUAGCAAUAUUACGUUUU	-2.71 ± 0.13	-2.17 ± 0.17
AAUAAGCAAUAUUACGACGA	-0.785 ± 0.11	-0.362 ± 0.14
AAUAAGCAAUAUUACGAGGA	-3.05 ± 0.43	-1.94 ± 0.33
AAUAAGCAAUAUUACGAGGG	-3.7 ± 0.37	-2.9 ± 0.34
AAUAAGCAAUAUUACGCAGC	-3.5 ± 0.26	-2.1 ± 0.23
AAUAAGCAAUAUUACGCAUU	-2.97 ± 0.21	-2.56 ± 0.28
AAUAAGCAAUAUUACGCCAA	-2.17 ± 0.21	-1.46 ± 0.18
AAUAAGCAAUAUUACGCCAG	-1.88 ± 0.18	-0.98 ± 0.25
AAUAAGCAAUAUUACGCCGC	-2.65 ± 0.46	-1.49 ± 0.28
AAUAAGCAAUAUUACGCCUG	-0.724 ± 0.13	0.286 ± 0.17
AAUAAGCAAUAUUACGCGGA	-2.57 ± 0.22	-1.33 ± 0.19
AAUAAGCAAUAUUACGCGUG	-0.604 ± 0.071	-0.455 ± 0.089
AAUAAGCAAUAUUACGGACC	-1.54 ± 0.12	-0.72 ± 0.15
AAUAAGCAAUAUUACGGCAA	-0.158 ± 0.09	-0.3 ± 0.12
AAUAAGCAAUAUUACGUAAA	-1.89 ± 0.1	-1.22 ± 0.14
AAUAAGCAAUAUUACGUCUU	0.0603 ± 0.06	-0.0919 ± 0.075
AAUAAGCAAUAUUACGUGAU	-2.97 ± 0.14	-1.23 ± 0.12
AAUAAGCAAUAUUACGUGGA	-3.22 ± 0.22	-2.42 ± 0.19

Sequence	self-splicing fitness (ln) (30 °C)	self-splicing fitness (ln) (37 °C)
AAUAAGCAAUAUUACGUGUA	-2.16 ± 0.12	-1.12 ± 0.11
AAUAAGCAAUAUUACGUGUC	-3 ± 0.14	-0.777 ± 0.14
AAUCAGCAAUAUUACGAAUA	0.443 ± 0.16	-0.266 ± 0.12
AAUCAGCAAUAUUACGAAUC	-0.973 ± 0.1	0.372 ± 0.12
AAUCAGCAAUAUUACGACUC	-0.0136 ± 0.086	0.129 ± 0.11
AAUCAGCAAUAUUACGAGUA	-1.43 ± 0.081	0.415 ± 0.083
AAUCAGCAAUAUUACGAUAG	-1.3 ± 0.1	-0.239 ± 0.1
AAUCAGCAAUAUUACGCACA	-0.245 ± 0.063	0.0601 ± 0.085
AAUCAGCAAUAUUACGCGAU	-2.8 ± 0.14	-2.07 ± 0.14
AAUCAGCAAUAUUACGCUGG	-2.63 ± 0.099	-2.87 ± 0.087
AAUCAGCAAUAUUACGCUGU	-3.28 ± 0.14	-1.59 ± 0.11
AAUCAGCAAUAUUACGGAGC	-2.64 ± 0.17	-0.807 ± 0.16
AAUCAGCAAUAUUACGGCAC	-0.508 ± 0.086	-0.24 ± 0.12
AAUCAGCAAUAUUACGGCUU	0.103 ± 0.067	0.17 ± 0.077
AAUCAGCAAUAUUACGGGCG	-0.742 ± 0.059	-0.382 ± 0.075
AAUCAGCAAUAUUACGGUGU	0.0362 ± 0.059	0.393 ± 0.072
AAUCAGCAAUAUUACGUAAC	-1.33 ± 0.11	-0.141 ± 0.11
AAUCAGCAAUAUUACGUCGG	-1.88 ± 0.1	-1.02 ± 0.14
AAUCAGCAAUAUUACGUGCA	-0.181 ± 0.067	0.221 ± 0.084
AAUCAGCAAUAUUACGUGGA	-0.585 ± 0.072	-0.433 ± 0.076
AAUCAGCAAUAUUACGUGUA	-0.538 ± 0.058	0.135 ± 0.068
AAUCAGCAAUAUUACGUUAA	-0.816 ± 0.072	-0.587 ± 0.077
AAUGAGCAAUAUUACGAAGG	-2.56 ± 0.43	-3.54 ± 0.43
AAUGAGCAAUAUUACGAAGU		-2.16 ± 0.33
AAUGAGCAAUAUUACGAGUA	-3.91 ± 0.25	-2.54 ± 0.27
AAUGAGCAAUAUUACGCAAA		-2.46 ± 0.48

Sequence	self-splicing fitness (ln) (30 °C)	self-splicing fitness (ln) (37 °C)
AAUGAGCAAUAUUACGCACA	-2.31 ± 0.29	-1.38 ± 0.2
AAUGAGCAAUAUUACGCCAC	-1.83 ± 0.22	-2.41 ± 0.49
AAUGAGCAAUAUUACGCCAU	-2.37 ± 0.39	-1.9 ± 0.48
AAUGAGCAAUAUUACGCCUA	-1.13 ± 0.21	-1.62 ± 0.25
AAUGAGCAAUAUUACGCCUU	-2.11 ± 0.13	-1.43 ± 0.15
AAUGAGCAAUAUUACGCGAC		-1.67 ± 0.48
AAUGAGCAAUAUUACGCUAG		-1.93 ± 0.36
AAUGAGCAAUAUUACGUAAC	-3.92 ± 0.27	-2.45 ± 0.21
AAUGAGCAAUAUUACGUGAU	-3.8 ± 0.29	-0.708 ± 0.2
AAUGAGCAAUAUUACGUUCA	-1.46 ± 0.12	-0.27 ± 0.13
AAUGAGCAAUAUUACGUUGG	-3.18 ± 0.23	-3.55 ± 0.27
AAUGAGCAAUAUUACGUUUC	-4.31 ± 0.24	-2.98 ± 0.25
AAUUAGCAAUAUUACGAAUC	-2.34 ± 0.16	-0.829 ± 0.16
AAUUAGCAAUAUUACGAAUG	-1.55 ± 0.12	0.187 ± 0.14
AAUUAGCAAUAUUACGACCA	-0.406 ± 0.1	0.48 ± 0.12
AAUUAGCAAUAUUACGACUC	-0.246 ± 0.11	0.0749 ± 0.16
AAUUAGCAAUAUUACGAGUU	-1.48 ± 0.12	-1.28 ± 0.15
AAUUAGCAAUAUUACGAUAC	-1.24 ± 0.36	-0.477 ± 0.21
AAUUAGCAAUAUUACGAUGA	-0.632 ± 0.094	-0.429 ± 0.11
AAUUAGCAAUAUUACGCACA	0.0525 ± 0.13	-0.475 ± 0.15
AAUUAGCAAUAUUACGCCAA	-2.13 ± 0.18	-1.25 ± 0.2
AAUUAGCAAUAUUACGCCCG	-1.04 ± 0.18	0.376 ± 0.28
AAUUAGCAAUAUUACGCCCU	0.0273 ± 0.1	-0.313 ± 0.13
AAUUAGCAAUAUUACGCUCC	-1.09 ± 0.36	-0.0599 ± 0.35
AAUUAGCAAUAUUACGGCUC	-0.532 ± 0.14	0.0268 ± 0.16
